± gives the uncertainty stated by the source.
B1: WW domain-containing transcription regulator protein 1, residues 116 to 162; numbered along this chain, Q9GZV5 (parent)
chain: QSYDVTDELPLPPGWEMTFTATGQRYFLNHIEKITTWQDPRKAMNQP

Variants of: B1
Test: abundance fitness (aPCA) (normalised: wild type 0, dead -1); higher = more abundant; growth selection in yeast, the domain comes from the species named
Settings: Homo sapiens

Row | Variant | abundance fitness
1 | P10F | -0.342 ± 0.038
2 | P10C | -0.374 ± 0.044
3 | P10Y | -0.351 ± 0.042
4 | P10K | -0.115 ± 0.035
5 | P10M | -0.212 ± 0.036
6 | P10N | -0.129 ± 0.032
7 | P10V | -0.188 ± 0.028
8 | P10A | -0.088 ± 0.027
9 | P10D | -0.083 ± 0.043
10 | P10I | -0.174 ± 0.03
11 | P10R | -0.224 ± 0.028
12 | T6F | -0.074 ± 0.052
13 | T6R | -0.086 ± 0.031
14 | T6A | -0.196 ± 0.037
15 | T6I | -0.032 ± 0.046
16 | T6N | -0.198 ± 0.06
17 | T6Q | -0.142 ± 0.044
18 | T6M | -0.008 ± 0.035
19 | T6V | -0.06 ± 0.026
20 | T6E | -0.216 ± 0.041
21 | T6D | -0.104 ± 0.044
22 | T6Y | -0.189 ± 0.054

Row | Variant | abundance fitness
23 | T6P | -0.013 ± 0.045
24 | T6S | -0.03 ± 0.036
25 | T6H | -0.352 ± 0.067
26 | T6C | -0.071 ± 0.056
27 | T6L | -0.104 ± 0.029
28 | D7Q | -0.178 ± 0.053
29 | D7T | -0.065 ± 0.056
30 | D7Y | -0.268 ± 0.049
31 | D7E | -0.314 ± 0.05
32 | D7M | -0.185 ± 0.049
33 | D7W | -0.45 ± 0.047
34 | D7A | -0.049 ± 0.027
35 | D7V | -0.207 ± 0.035
36 | D7F | -0.312 ± 0.033
37 | D7S | -0.104 ± 0.038
38 | D7I | -0.195 ± 0.055
39 | D7K | -0.041 ± 0.039
40 | D7C | -0.202 ± 0.05
41 | D7H | 0.053 ± 0.055
42 | D7G | -0.154 ± 0.035
43 | D7R | -0.166 ± 0.041
44 | D7N | -0.041 ± 0.032

Row | Variant | abundance fitness
45 | L11M | -0.07 ± 0.038
46 | L11H | -0.676 ± 0.081
47 | L11A | -0.715 ± 0.038
48 | L11D | -0.732 ± 0.048
49 | L11E | -0.767 ± 0.068
50 | L11Q | -0.684 ± 0.075
51 | L11Y | -0.493 ± 0.049
52 | L11S | -0.609 ± 0.035
53 | L11V | -0.381 ± 0.033
54 | L11K | -0.746 ± 0.086
55 | L11R | -0.847 ± 0.03
56 | L11T | -0.548 ± 0.042
57 | L11I | -0.337 ± 0.04
58 | L11W | -0.686 ± 0.033
59 | L11N | -0.789 ± 0.13
60 | L11G | -0.731 ± 0.029
61 | L11F | -0.08 ± 0.038
62 | L11P | -0.556 ± 0.044
63 | L11C | -0.432 ± 0.049
64 | L9H | -0.043 ± 0.049
65 | L9A | 0.044 ± 0.039
66 | L9N | -0.009 ± 0.048

Row | Variant | abundance fitness
67 | L9K | -0.064 ± 0.048
68 | L9Q | 0.022 ± 0.046
69 | L9E | -0.028 ± 0.034
70 | L9P | -0.001 ± 0.047
71 | L9D | 0.028 ± 0.025
72 | L9F | -0.082 ± 0.041
73 | L9V | 0.05 ± 0.034
74 | L9S | -0.003 ± 0.038
75 | L9R | 0.027 ± 0.029
76 | L9G | -0.027 ± 0.03
77 | L9I | 0.022 ± 0.05
78 | L9C | -0.103 ± 0.04
79 | L9M | -0.009 ± 0.029
80 | L9W | -0.087 ± 0.032
81 | L9T | 0.117 ± 0.045
82 | L9Y | -0.035 ± 0.037
83 | P12N | -0.556 ± 0.083
84 | P12I | -0.873 ± 0.2
85 | P12D | -0.604 ± 0.058
86 | P12C | -0.716 ± 0.083
87 | P12H | -0.907 ± 0.24
88 | P12K | -0.782 ± 0.089

Row | Variant | abundance fitness
89 | P12L | -0.738 ± 0.048
90 | P12A | -0.467 ± 0.041
91 | P12F | -0.997 ± 0.15
92 | P12G | -0.49 ± 0.041
93 | P12E | -0.601 ± 0.062
94 | P12M | -0.862 ± 0.085
95 | V5C | -0.126 ± 0.032
96 | V5K | -0.023 ± 0.038
97 | V5I | 0.029 ± 0.036
98 | V5E | -0.088 ± 0.042
99 | V5S | -0.053 ± 0.032
100 | V5Y | -0.354 ± 0.081
101 | V5A | -0.088 ± 0.036
102 | V5R | -0.111 ± 0.035
103 | V5H | -0.231 ± 0.059
104 | V5Q | -0.145 ± 0.046
105 | V5L | -0.103 ± 0.025
106 | V5N | -0.033 ± 0.049
107 | V5P | -0.224 ± 0.048
108 | V5M | -0.026 ± 0.035
109 | V5G | -0.194 ± 0.03
110 | V5T | 0.011 ± 0.044

From the Human Domainome abundance scans (Beltran et al. 2025)
